From patent publication US20190375826A1 come the findings set out here.

Read-outs that look alike come from different tables or passages of the source.

The target in assay [1] is DENV4 NS1 (nonstructural protein 1 of dengue virus type 4 strain H241) (dengue virus serotype 4, strain H241).
Assay [2] has the same target. This is another data set of the same source.
Assay [3] deals with DENV2 NS1 (nonstructural protein 1 of dengue virus type 2 strain 16681) (dengue virus serotype 2, strain 16681).
Assay [4] has the same target. The source holds these as a separate data set.
In assay [5] the target is DENV3 NS1 (nonstructural protein 1 of dengue virus type 3 strain H87) (dengue virus serotype 3, strain H87).
Assay [6] has the same target. This is another data set of the same source.

B1: mAb22-1.5 (antibody, V domains shown)
VH: EVQLQQSGPELVKPGASVKISCKASGYTFTDYNIHWVKQSPGKSLEWIGYIYPDNGDTGYNQIFKNKATLTVDTSSSAAYMELRSLTSEDSAVYYCVRRVLLDSWGQGTSVTVSS
VL: DIQMTQTTSSLSASLGDRVTISCSASQDINNFLNWYQQKPDGTIKLLIYYTSSLQSGVPSRFSGSGSGTDYSLTISNLEPEDIATYYCQQYSKLPRTFGGGTKLEIKR
B1: the minimum detectable concentration of NS1 proteins stood at 0.977 ng/mL in assay [1] and 62.5 ng/mL in assay [2].

B2: mAb33-7.1 (antibody, V domains shown)
VH: EVQLQESGAELAKPGASVKMSCKASGYTFTSYWMHWVKQRPGQVLEWIGYINPNTGFTEYSQKFKDKATLTAVKSSSTAYIQLTSLTSDDSAVYYCARENYRYDGAMDYWGQGTSVTVSS
VL: DIVLTQSPALMAAFPGDRVTITCSVSSSVSSSNLHWYQQKSETSPKPWIYGTSTLASGVPVRFSGSGSGTSYSLTISSMEAEDAATYYCQQWSSYPLTFGAGTKLELKR
In the case of B2, the minimum detectable concentration of NS1 proteins in assay [3] turned out to be 3.91 ng/mL; in assay [4], 62.5 ng/mL.

B3: mAb43-1.3 (antibody, V domains shown)
VH: GELQESGPQVVRPGTSVKISCKASGYSFSNYWMHWVKQRPGQGLEWIGVIDPSDSETRLNQKFKDKATLTVDKSSSTAYMQLSSPTSEDSAIYYCARSQFGLRFAYWGQGTLVTVSA
VL: DIVMTQSPSSMTVTAGEKVTMSCQSSQSLFNSGTQKNYLTWYQQKPGQPPKLLISWASTRDSGVPDRFTGSGSGTDFTLTINGVQAEDLAVYFCQNDYDSPYTFGGGTKLEIKR
In the case of B3, the results for the minimum detectable concentration of NS1 proteins in assay [5] and in assay [6] were 3.91 ng/mL and 62.5 ng/mL, respectively.
